Laboratory results from patent US20180036395A1, “DOSAGE AND ADMINISTRATION OF MONOSPECIFIC AND BISPECIFIC ANTI-IGR-1R AND ANTI-ERBB3 ANTIBODIES” (Merrimack Pharmaceuticals, Inc., priority 2012, published 2018).

What was measured:
BxPC-3 cells = experiment: In vitro signaling ELISA, KRAS wild-type cells; assay type: cell-based, human; details: combination 500 nM P4-G1-M1.3 + 250 nM GSK1120212, 24 hours, 10% serum, FIG. 3
Description: Cells were treated with 500 nM P4-G1-M1.3, 250 nM GSK1120212 or the combination for 24 hours in 10% serum and ELISA assays were performed. The data was normalized to 10% serum without treatment.
The preclinical models to support this example are performed using BxPC-3 (KRAS wild-type) and KP4 (KRAS mutant) cell lines.

pancreatic carcinoma = experiment: Treatment of patients with pancreatic cancer; assay type: in vivo, human
Description: (§1) P4-G1-M1.3 is formulated in 20 mM histidine, 100 mM arginine-HCl, 3% sucrose, at pH 5.5 supplemented with 0.002-0.02% of Tween® 80 at concentration range 5-15 mg/mL. P4-G1-M1.3 is administered to patients at 6 mg/kg, 12 mg/kg, 20 mg/kg, 30 mg/kg, 40 mg/kg, 50 mg/kg or 60 mg/kg q7d, ql4d, q21d, or q28d with a loading dose of 12 mg/kg, 20 mg/kg, 40 mg/kg, 40 mg/kg or 60 mg/kg Everolimus is administered to patients at 2.5 mg, 5 mg, or 10 mg orally once a day or once every other day.
Patients with pancreatic carcinoma are treated with a combination of an effective amount of gemcitabine, cytarabine, capecitabine, or 5-fluorouracil (5-FU) and an effective amount of P4-G1-M1.3. Patients are dosed with P4-G1-M1.3 as described in Example 1. Patients are dosed with the manufacturer's recommended dose of gemcitabine, capecitabine or 5-FU.
Patients with pancreatic cancer (KRAS wild-type and KRAS mutant) are treated with a combination of an effective amount of a MEK inhibitor (e.g., GSK1120212, BAY 86-9766 or AZD6244) and an effective amount of P4-G1-M1.3. Patients are dosed with P4-G1-M1.3 as described in Example 1. The clinical dose of MEK inhibitor is the dose used for that inhibitor in phase II or phase III clinical trials.

[1] = tested on: DU145 prostate cancer cells; experiment: DU145 prostate cancer xenograft study; assay type: in vivo, human; details: combination of docetaxel (10mpk q7d) and P4-G1-M1.3 (30mpk, q3d); FIG. 4
Description: The y-axis represents mean tumor volume in mm^3 and the x-axis represents time in days.
For each of the xenograft studies below, cells are resuspended 1:1 with PBS:Growth factor-reduced Matrigel® and injected subcutaneously into Nu/Nu mice. Tumors are allowed to develop for 8 days. Antibodies are injected intraperitoneally every 3 days (q3d) at the indicated doses/mouse. Tumor lengths and widths are measured twice a week manually by caliper, and tumor volume calculated using the following formula: π/6(L×W^2). Each arm of a study contains 10 animals. All studies are carried out using methods approved by an internal IACUC panel.
Statistical significance across groups was determined using the student's T-test (*,p<0.05 vs control.; #,p<0.05 vs docetaxel; a,p<0.05 vs P4-G1-M1.3).

[2] = tested on: HepG2 hepatocellular carcinoma cells; experiment: HepG2 quantitative western blotting; assay type: cell-based, human; details: 2 hours or 6 hours, compared to either alone, FIG. 5
Description: Cells were treated with 500 nM P4-G1-M1.3, […] sorafenib or the combination for either 2 hours or 6 hours and quantitative western blotting was performed.
Buffer containing β-Mercaptoethanol (β-ME) is added and lysates are boiled for 5 minutes at 95° C. Approximately 40 μg of protein and two ladders (Invitrogen) are run on each well of an 18-well gel (BioRad). Gels are run at 150 volts constant for approximately 90 minutes and transferred to nitrocellulose membranes using the 8 minute transfer program of the iBlot® (Invitrogen) transfer system. Membranes are blocked in Odyssey® Blocking Buffer (Licor® Biosciences) for 1 hour at room temperature, and then incubated with primary antibodies overnight at 4° C. in 5% BSA in TBS-T. All antibodies are purchased from Cell Signaling and used at the recommended dilution. The following day membranes are washed 3×5 minutes each with TBS-T and then incubated with anti-Rabbit IgG—DyLight® 800 (Cell Signaling) or anti-Rabbit IRDye® 800 (Licor® Biosciences) at 1:10,000-15,000 in 5% milk in TBS-T for 1 hour at room temperature. Membranes were then washed 3×5 minutes each with TBS-T and scanned using the Licor® Odyssey® system (Licor® Biosciences). Intensities are quantified using Image Studio 2.0 and normalized to β-Actin levels. […]

melanoma = experiment: Treatment of patients with melanoma; assay type: in vivo, human; details: vemurafenib or dabrafenib + P4-G1-M1.3
Description: as §1
Patients with melanoma are treated by administration of either monotherapy with an effective amount of vemurafenib (Zelboraf®) or an effective amount of P4-G1-M1.3, or with combination therapy comprising or consisting of administration of both the effective amount of vemurafenib or dabrafenib and the effective amount of P4-G1-M1.3. P4-G1-M1.3 is formulated and administered as described above in Example 1. Vemurafenib is given orally at 960 mg 1-2 times daily. Dabrafenib is administered as administered in dabrafenib phase III clinical trials.

BxPC-3 tumors = experiment: BxPC-3 xenograft pharmacodynamic (PD) study, western blotting of tumor lysates; assay type: in vivo, human; details: BxPC-3 PD study tumors
Description: BxPC-3 mouse xenograft models are established using 5×10^6 BxPC-3 cells that are resuspended 1:1 with PBS:Growth factor-reduced Matrigel® and injected subcutaneously into Nu/Nu mice. Tumors are allowed to develop for 8 days. Antibodies are injected intraperitoneally every 3 days (q3d) for 2 rounds of dosing.
For the BxPC-3 PD study, 4 treatment groups are established, each containing 4 mice. These included control, P4-G1-M1.3 (q3d, 600 μg), gemcitabine (q3d, 150 mg/kg) and P4-G1-M1.3+gemcitabine (combined individual doses). Tumors are excised on either day 19 or day 28, resulting in a total of 8 groups.
Tumors are initially weighed and pulverized in a CryoPrep® tissue pulverizer (Covaris). Tissue Extraction Reagent 1 (TER1, Life Technologies™) containing protease and phosphatase inhibitors was added to the tumor at a ratio of lml TER1 per 100 mg of tissue. Samples are incubated on ice for 30 minutes to solubilize tissue and put through a QIAshredder™ column (Qiagen) according to the manufacturer's protocol. A BCA assay (Pierce) is performed to determine protein concentration according to the manufacturer's protocol.
Using BxPC-3 xenografts, mice with control tumors were compared to those treated with monotherapy with P4-G1-M1.3, monotherapy with gemcitabine or combination therapy with P4-G1-M1.3 and gemcitabine.

B1: P4-G1-M1.3: anti-IGF-1R+anti-ErbB3 polyvalent bispecific antibody, IgG1-(scFv)2 (SEQ ID NO:148 and SEQ ID NO:149) (protein)
chain 1: EVQLLQSGGGLVQPGGSLRLSCAASGFLFSSYPMHWVRQAPGKGLEWVGSISPSGGATPYADSVKGRFTISRDNSKNTLYLQMNSLRPEDTAVYYCAKDFYNILTGNAFDKWGQGTSVTVSSASTGGGGSGGGGSGGGGSGGGGSDIQLTQSPSSLSASLGDRVTITCRASQGISSYLAWYQQKPGKAPKLLIYAGSTPQSGVPSRFSGSGSGTEFTLTISSLQPEDSGTYYCQQYWTWPLTFGGGTKVEIKRT
chain 2: EVQLVESGGGLVQPGRSLRLSCAASGFTFDDYAMHWVRQAPGKGLEWVSGISWNSGSTGYADSVKGRFTISRDNAKNSLYLQMNSLRAEDTALYYCARDLGYNQWLEGFDYWGQGTLVTVSSASTGGGGSGGGGSGGGGSGGGGSSSELTQDPAVSVALGQTVRITCQGDSLRSYYASWYQQKPGQAPVLVIYGKNNRPSGIPDRFSGSSSGNTASLTITGAQAEDEADYYCMSRDHPGNQWVFGGGTKVTVLG
modifications: Synthetic polypeptide:Anti-IGF-1R scFvs M76; Synthetic polypeptide:Anti-ErbB3 scFvs P6L
signaling (pAkt Ser473, pERK) (BxPC-3 cells): inhibition of signaling
treatment outcome (pancreatic carcinoma; pancreatic cancer (KRAS wild-type and KRAS mutant), MEK inhibitor (GSK1120212, BAY 86-9766 or AZD6244) + P4-G1-M1.3): combinatorially enhanced outcome
treatment outcome (pancreatic carcinoma; patients with pancreatic carcinoma, gemcitabine, cytarabine, capecitabine, or 5-fluorouracil + P4-G1-M1.3): combinatorially enhanced outcome
growth of DU145 prostate cancer cells in vivo (mean tumor volume) [1]: inhibition of growth
downstream signaling (pErbB3, pAkt Ser473, pERK1/2) ([2]; combination of 500 nM P4-G1-M1.3 and 504 sorafenib): inhibits downstream signaling
ErbB3 level ([2]; combination of 500 nM P4-G1-M1.3 and sorafenib): downregulation of ErbB3
treatment outcome (melanoma): combinatorially enhanced outcome
ERK phosphorylation (BxPC-3 tumors; FIG. 2H): inhibits ERK phosphorylation
apoptosis-inducing activity of gemcitabine (survivin) (BxPC-3 tumors; P4-G1-M1.3 600 μg + gemcitabine 150 mg/kg q3d, FIG. 2H): potentiates apoptosis-inducing activity of gemcitabine
level of receptor complexes (IGF-1R, Insulin Receptor, EGFR, ErbB3, ErbB2) (BxPC-3 tumors; P4-G1-M1.3 q3d 600 μg, FIG. 2A-2C): downregulates receptor complexes
PI3K/AKT/mTOR signaling (phospho-AKT, phospho-FoxO, phospho-PDK1, phospho-mTOR, phospho-S6, pRAS40, p4EB-PB1) (BxPC-3 tumors; P4-G1-M1.3 q3d 600 μg, FIG. 2D-2G, 2I, 2J): inhibits PI3K/AKT/mTOR signaling
